Measurements: patent US20250277030A1, “ANTI-NAPI2B ANTIBODIES AND METHODS OF USE” (Zymeworks BC Inc., priority 2022, published 2025)

Experiments:
[1] = tested on: dsDNA; test: NS-ELISA non-specific binding, dsDNA; conditions: mAb at 100 nM
Description: (§1) The isoelectric point was measured by capillary isoelectric focusing (cIEF), the propensity for self-aggregation was measured by Affinity-capture self-interaction nanoparticle spectroscopy (AC-SINS) and non-specific binding was measured by NS-ELISA, as described below.
NS-ELISA was used to measure the propensity of the antibodies to bind to a range of biomolecules to emulate the undesirable non-specific interactions to biological matrices in vivo as described below.
NS-ELISA was carried out in Corning®96-well EIA/RIA Easy Wash™ Clear Flat Bottom Polystyrene High Bind Microplate coated overnight at 4° C. with 50 μL of Heparin (Sigma, H3149) diluted with 50 mM sodium carbonate pH 9.6 to a final concentration of 250 μg/mL. The plate was incubated for 2 days at room temperature, wells that were coated with heparin were not covered to allow air dry. […] Reactions were stopped after approximately 10 minutes by adding 100 μL of 1 M HCl to each well, and absorbance was read at 450 nm. Binding scores were calculated as the ratio of the ELISA signal of the antibody (antibody-treated) to the signal of a well containing buffer instead of the primary antibody (untreated). The cutoffs considered for each binding molecule (ssDNA, KLH, insulin, dsDNA and heparin) were internally calculated, based on the average of Zymeworks Inc. produced antibodies and antibodies benchmarks published in the literature.

[2] = AC-SINS self-aggregation propensity; assay type: physicochemical; conditions: 0.05 mg/mL in PBS pH 7.4; cutoff 10 nm = high self-aggregation propensity
Description: as §1
AC-SINS method was carried out in a 384-well plate format (Corning®#3702). Initially, 20 nm gold nanoparticles (Ted Pella, Inc., #15705) washed with 0.22 μm filtered Gibco™ Distilled Water were coated with a mixture of capture antibody—80% AffiniPure Goat Anti-Human IgG (H+L) (Jackson ImmunoResearch Laboratories® #109-005-088), and the non-capture antibody −20% ChromPure Goat IgG, whole molecule (Jackson ImmunoResearch Laboratories® #005-000-003), that were initially buffer exchanged into 20 mM sodium acetate pH 4.3 and diluted to 0.4 mg/mL. […] The absorbance was read from 450-700 nm at 1 nm increments, and a Microsoft Excel macro was used to identify the max absorbance, smooth the data, and fit the data using a second-order polynomial. The Alambda (nm) was calculated based on the smoothed max absorbance of the average blank (PBS alone) subtracted from the smoothed max absorbance of the antibody sample to determine the antibody AC-SINS score. Antibody-antibody interactions directly correlate with the shift in maximum absorbance wavelength of gold nanoparticles coated with the antibody of interest. […]

B1: v29456: humanized anti-NaPi2b IgG1/kappa antibody H1L2; VH SEQ ID NO:24, VL SEQ ID NO:29 (antibody, V domains shown)
VH: QVQLVQSGAEVKKPGASVKVSCKASGFTFTSYNVHWVRQAPGQGLEWMGAISPGNGDLSYAQKFQGRVTMTRDTSTSTVYMELSSLRSEDTAVYYCARGRTGMGAVDYWGQGTLVTVSS
VL: DVQMTQSPSSLSASVGDRVTITCRASQDVYSYLNWYQQKPGKAVKLLIYYTSRLQSGVPSRFSGSGSGTDYTLTISSLQPEDFATYYCQQYNIFPWTFGQGTKLEIK
modifications: v29452, v29456, v29460 VH (H1); v29453, v29454, v29455, v29456 VL (L2)
- NS-ELISA binding score (ratio of signal between antibody-treated and untreated), dsDNA [1]: 1.07
- AC-SINS Δlambda (nm) [2]: 2.5 nm
